# In the supplement of paper PMC9170038:
# Test system: K4 kissing-loop RNA reporter
# Test: apparent KD of K4 kissing-loop reporter; higher = weaker reporter binding
# Details: Eterna round: R107; input ligand: theophylline 20 uM
# Description: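 RNA-MaP round R107: designed RNA switches with theophylline, tryptophan, arginine or FMN aptamers are transcribed on-chip within common flanks. They are titrated with a labelled K4 kissing-loop RNA reporter in RNA-MaP buffer (100 mM Tris pH 7.5, 80 mM KCl, 4 mM MgCl2), without ligand or with the indicated ligand. Median apparent KD per design.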
# 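Further: bound reporter read as fluorescence of individual clusters on recovered sequencing chips by microscopy, with normalized cluster intensities fitted with a binding model.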
row,Sequence,apparent KD of K4 kissing-loop reporter
1,UGUCAUUGGUCGGCCGCCACUUCGGUCAAAGACCAUAAAGAGUGAUGUUCUUAAGACGAAAGUCGAAGGACCGGGACCGAUGACU [TrypBS 11 #SwitchBubble #K4Middle],782 nM
2,AUGGUUGUCGUAGGAUAUGUAGGAUAUUCCUAUAGCAGUGAUGUUGCUAAUAUCUUGGAAAGAAGGACAGAAGGACGAUAACCAC [KL-SSFMN-B2 #analogue],108 nM
3,AGUAGGAAACUACAAUCCUCUCUUACUGAAGGAGCGCGUGAAAACGCAGGUAGGUCGCAGGAUUUGAGAGUGAUGUUCUCAUUAA [Ex Arginine A K4 16],277 nM
4,AAUACGUUCACGGCCGCCACUGAAUAAUUGGUAAGUAGUGAUGUUACUUUACAUAUCUUAUUUAACAGGACCGGGUGAUCGUUUA [JR_Nu_ExcTryptoB_Sub028],105 nM
5,UCACGUGCCAGUGAUGUUGGCGUACGUGAUACCAGAACAAUAAAGUUCCCUUGGCAGCACAAAUAUGCCAAGUUAGAUGUAUGAU [Exclusion Theophylline A GF 3],119 nM
6,ACUUAUUGUGUCGAUACCAGCAGGUGACGACGCCUCAUGGCUGACGAGUGAUGUUCGACUUGCCCUUGGCAGCGACAUACGCCGG [theeternabot_sameState_KL_Theo_B_12],365 nM
7,GAUUCAGUGAUGUUGGAAGGCGAGCGGGAUACCAGCCGAGACUCAGGCCCUUGGCAGCCCACAUAUCCCAGGUAGAUAGUCGCUC [Same State - Theophylline A (Freestyle 10)],383 nM
8,AUUCAGAUCUGAAGGAGCGCGUUGACAUAUUGCUUCAUUGAGCAGUGAUGUUGCUCAGUAACGCAGGUAGGUCGCAGAUCUGGCC [Arg B Ex t7a],92.3 nM
9,GUGCAGUGAUGUUGCACGAGGAAAGACGAUACCAGCCGUAAAUAAGGCCCUUGGCAGCGUAGGCUAGCAUAAAGUAUGCCAGUCU [Geleerra],113 nM
10,UGACUGGACUGAAGGAGCGCUAAACUCCUAGUGAUGUUAGGGAACCGAGACAAAGUCUCGAGGCAGGUAGGUCGCAGUCUAGUCU [FiskerMod 2 - Jieux - Same State - Arginine B],359 nM
11,GUUUUAUAAGAGGAUACCAGUACAAAUAAAGUACAUUAAUAGUAGAGUGAUGUUCUAAAGUACCCUUGGCAGCUUAGAUUAAGUU [ExTheophylB.E],252 nM

# Same assay, conditions: Eterna round: R107; input ligand: tryptophan 2.4 mM
row,Sequence,apparent KD of K4 kissing-loop reporter
1,UACUAUAUUCUGUCGUUUUUAUUAGUUUGUCAGGAUAUCGUUUAUUCGAGAAGGGACACUGUCUAGUGAUGUUAGACAUUUCUUU [#04 K4 FMN A Exclusion],75.5 nM
2,AAUAAAAUCACGGCCGCCACUGAUUUUUUUAUUAGGAGUGAUGUUCCUUUGUCUAUAUACCUUAACAGGACCGGGUGAAUAUUUA [JR_SSTryptoB_Sub022],52.1 nM
3,AGUCGAGAUUAUAGACUCGACAGGUCAGAAGGAGCGACGAAUUCGUCAGGUAGGUCGCUGACAUAGCAGUGAUGUUGCUAUACGG [Arg A SS t1],126 nM
4,UAUCAGAUUACUGAUACCAGUCUAAAGACAGUGAUGUUGUCUGAUCGACCACGAUCAAAGGACCCUUGGCAGCAGUGUACUAUUC [#29 K4 Theophylline B Same State],199 nM
5,GGCCGGUUGAAAGGCCGGCCAGAAACCGAAGGAGCGCGAAGAAACGCAGGUAGGUCGCGGAAAACAUGACCAGUGAUGUUGGUCG,144 nM
6,GCCGUAGAUGGAAGGAGCGUGGUUAAUGUAAGUGAUGUUUACGAGGUUAACAAUUGACCGCCACAGGUAGGUCGCCAUCUACGGC,70.5 nM
7,UAUGUACGCGGGUAACGGUACAUCGAGGAAGGAGCGUGCGCAGGCACAGGUAGGUCGCCUCAGCGCACGAGUGAUGUUCGUGGGC [Rere],280 nM
8,AGAGUUAUGCGAGGAUAUGCAGUUAGUACUCAAAGAGUACUAACGCAGAGUGAUGUUCUGUGAAACGCAGAAGGUGCAUAACUCA [Omei KL FMN B SS B v4],485 nM
9,CGCAAGCAGCCAGUGAUGUUGGCCGCCUUGCGAGGACCGGUACGGCCGCCACUCGAAGGCGGCUACUGGUAAACCGCCUAACGGA [Onzaenla],96.4 nM
10,UAAUAUAAUCUGUCGUUUACAAUAUUUAGUCAGGAUAUCGUAUAUUCGAGAAGGGACACUAUCUAGUGAUGUUAGAUAUUUCUUU [JR_ExcFMNA_Sub014],51.9 nM
11,AGACUACCUACACUGUCAAUAGACAGUGACUAGGAUAUGCUGAUAAGCAGAAGGAGUGAUGUUCCUGGUAGUCAAAUAAAAUAAU [FmnAX 12 #SwitchBubble #StaticStem #K4Early],278 nM
12,UGAUAGGACAGAAGGAGCGGAAGUGAUGUUUCCAAAAGGCUAAGGUGUCAAAAGACACCCUUCCAGGUAGGUCGCUGUCCUAUCU,203 nM
13,CGGCCCGGCGCGGCCGCCACUGUGCCUGGGCGCUUGCCGAGUGAUGUUCGUCGGCGGUCGGGUGGCAGGACCGGGCGCCGGUCCG [BDazzled - #26 SS Tryptophan B],134 nM
14,AGUCGCAGUGAUGUUGCGAUUCCGUUGAGGGAGGAUAUUGGUAAUACAAGAAGGCCCGGCUACGGGAGAUGUUAGCAAUAGGGCC [Exclusion FMN A GF20],63.9 nM
15,AUUUGUUUAUGUGAUACCAGACUUUGCAGUGAUGUUGCAUUUAUUUUAGAAUAUAAUUUAGUCCCUUGGCAGCACUAUGUAUUUA [JR_SSTheophyB_Sub008],63.4 nM
16,GGAUAGGACAGAGGAUAUGGACAGUCUACAAAGUAGGCUGAAUAAAUCCUUGAAUGGAGUGAUGUUCCAGAAGGCUGUCCUAUCG [FmnBX 22 #SwitchBubble #StaticStem #Palindromic],426 nM
17,UAGCGGGCGAUUCGACGUGCGUCCAGUCAUCGAGGACCGGUACGGCCGCCACUCGCCGGAGUGAUGUUCCGGUACGUCAUAUAAU [theeternabot_sameState_KL_Trp_A_35],197 nM
18,UGUCAUUGGUCGGCCGCCACUAUAAUAAAAGAGUGAUGUUCUAAAAGACGGACAAAAGUCUGUCAUAGGACCGGGACCGAUGACU [TrypBS 25 #SwitchBubble #StaticStem],616 nM
19,AUUAAUAACAGAGGAUAUGCAUUUUUAUUAUUUUUUAUUAUUAUAUGCAGUGAUGUUGCAUAUUAAGCAGAAGGCUGAUUUAUUU [JR_SSFMNB_Sub013],102 nM
20,GCACUUCUCAGUGAUGUUGAGUAAUCGGAAGGAGCGCGUGAAAACGCAGGUAGGUCGCCGAUACAUGAAGUAUCUUCGUGUGUGC [Arginine A K4 25],216 nM
21,ACGUGUCACUGAAGGAGCGUCUACCGAAUACGAGUGAUGUUGGUAUACCACUUAUAUAGUGGACAGGUAGGUCGCAGUGAUACGU [Arg B Ex t4],837 nM
22,AAUCGCAGUGAUGUUGCGAUUCCGUUGAGGGAGGAUAUUGGUAAUACAAGAAGGUUCGGUUACGGGAGAUGUUAGUAAUAGGGCC [Exclusion FMN A GF21],85.2 nM

row,Sequence,apparent KD of K4 kissing-loop reporter
1,CUUAAGAUAUGAGUGAUGUUUAUGUCCGAAGGAGCGUGCGAAAGUACAGGUAGGUCGCGGAUGUGAGUGAUGUUUAUGUAAGCGA [KL-XArg-A14 #analogue],103 nM
2,GGUAGCAUGGCGGCCGCCACUUCGAAUAAGUGAUGUUUAUUUGACUGAGCACCCUAUGCCAUGUGAAGGACCGGGCCAUGCUACC,200 nM
3,CGUACGGUUUCUUUCUUUCCGUACGAGUGCCGAGGACCGGUACGGCCGCCACUCGCUACAGCCUAGUGAUGUUAGGCAUUUCUUU,94.1 nM
4,UACCUGCUGUCAGGAUAUGAGUGCAGUGAUGUUGCACUCAACGUAACCAUCUUGAAAUACAAACACUCAGAAGGGACGCACGAAG [Isattema],191 nM
5,UUGGAAAUCAGAAGGAGCGUCUAAAAUGAAGGAACCAGUGAUGUUGGUUUUAUUUAAUGAAGACAGGUAGGUCGCUGAAUUUUUA [Same State Arginie B GF 18],91.5 nM
6,CGCAGUGAUGUUGCGAGUAGAUACAGGGAAGGAGCGCCGUAGUAGGCAGGUAGGUCGCCCACGCAGUGAUGUUGCGUCAUAGGGU [Exclusion Arginine A GF 5],87.6 nM
7,GUCUGAUGCGUUGAUACCAGUCCUUCAGUGAUGUUGCAAGCGCGGCCUAUCAAGCAAUCCGACCCUUGGCAGCAAUAGGUCCGAA [theeternabot_exclusion_KL_Theo_B_9],661 nM
8,AAACUUGCAGUGAUGUUGCAAGUAGGUGAUACCAGCAUCGAAAGAUGCCCUUGGCAGCACCAAAACAUCACUUAGGUGCUGUCUA [(H1)-(H2)-(T1)-(T2)-(H)'-(T)'_Design6],614 nM
9,CUUGGUGGCUACAUCAGGAAUUGCGGCGGAAAGGAUAUUCAUUGGCGAAGAAGGUUCCAAGUGACGAGUGAUGUUCUUCGUAAGG [theeternabot_sameState_KL_FMN_A_13],779 nM
10,AGCGGCCAGUCGGCCGCCACUCCAGGCAGUGAUGUUGCUAAGUUUCUACUAGAGUGAUGUUCUAAGAGGACCGGGACUGACGUAU [Exclusion Tryptophan B Gf 8],145 nM
11,UGUCAUUGGUCGGCCGCCACUUCGGUCAAAGACCAUAAAGAGUGAUGUUCUUAAGACGAAAGUCGAAGGACCGGGACCGAUGACU [TrypBS 11 #SwitchBubble #K4Middle],273 nM
12,AUGGUUGUCGUAGGAUAUGUAGGAUAUUCCUAUAGCAGUGAUGUUGCUAAUAUCUUGGAAAGAAGGACAGAAGGACGAUAACCAC [KL-SSFMN-B2 #analogue],111 nM
13,AGUAGGAAACUACAAUCCUCUCUUACUGAAGGAGCGCGUGAAAACGCAGGUAGGUCGCAGGAUUUGAGAGUGAUGUUCUCAUUAA [Ex Arginine A K4 16],174 nM
14,AAUACGUUCACGGCCGCCACUGAAUAAUUGGUAAGUAGUGAUGUUACUUUACAUAUCUUAUUUAACAGGACCGGGUGAUCGUUUA [JR_Nu_ExcTryptoB_Sub028],142 nM
15,UCACGUGCCAGUGAUGUUGGCGUACGUGAUACCAGAACAAUAAAGUUCCCUUGGCAGCACAAAUAUGCCAAGUUAGAUGUAUGAU [Exclusion Theophylline A GF 3],113 nM
16,ACUUAUUGUGUCGAUACCAGCAGGUGACGACGCCUCAUGGCUGACGAGUGAUGUUCGACUUGCCCUUGGCAGCGACAUACGCCGG [theeternabot_sameState_KL_Theo_B_12],310 nM
17,GAUUCAGUGAUGUUGGAAGGCGAGCGGGAUACCAGCCGAGACUCAGGCCCUUGGCAGCCCACAUAUCCCAGGUAGAUAGUCGCUC [Same State - Theophylline A (Freestyle 10)],265 nM
18,AUUCAGAUCUGAAGGAGCGCGUUGACAUAUUGCUUCAUUGAGCAGUGAUGUUGCUCAGUAACGCAGGUAGGUCGCAGAUCUGGCC [Arg B Ex t7a],104 nM
19,GUGCAGUGAUGUUGCACGAGGAAAGACGAUACCAGCCGUAAAUAAGGCCCUUGGCAGCGUAGGCUAGCAUAAAGUAUGCCAGUCU [Geleerra],96.5 nM
20,UGACUGGACUGAAGGAGCGCUAAACUCCUAGUGAUGUUAGGGAACCGAGACAAAGUCUCGAGGCAGGUAGGUCGCAGUCUAGUCU [FiskerMod 2 - Jieux - Same State - Arginine B],288 nM
21,GUUUUAUAAGAGGAUACCAGUACAAAUAAAGUACAUUAAUAGUAGAGUGAUGUUCUAAAGUACCCUUGGCAGCUUAGAUUAAGUU [ExTheophylB.E],116 nM
